Reference: US20220233638A1 (WASEDA UNIVERSITY, published 2022)

Molecular target: T1, GST-DLA88-α3 (dog, UniProt P18466 207-299)
T1 construct: also called recombinant protein containing only α3 domain of DLA88; not shown: glutathione S-transferase (GST) tag of expression vector pGEX-6p-1
Experiment: biolayer interferometry (BLItz); GST-DLA88-α3 immobilised on anti-GST sensor, GST-LILRB3 D1/D2 loaded as sample
Protocol: The recombinant proteins DLA88-α3 and LILRB3-D1/D2 used in (b) were separately incubated at 37° C. for 2 hr, and immobilized on the BLI sensor for 5 min using DLA88-α3 as a ligand. LILRB3-D1/2D was loaded as a sample at the indicated concentrations.
BLItz™ ([…]) was used to analyze the dynamics between DLA88-α3 and LILRB3-D1/D2. A GST sensor and an anti-GST antibody-immobilized sensor ([…]) were used. GST-DLA88-α3 and GST-LILRB3-D1/D2 were separately incubated at 37° C. for 2 hr. GST-DLA88-α3 was immobilized on the GST sensor as a ligand molecule for 5 min and completely covered with the GST sensor. After washing with PBS-T (5% Tween-PBS) for 30 sec, GST-LILRB3 D1/D2 was loaded as a sample while trembling for 2 min. In addition to association kinetics, dissociation kinetics was evaluated in PBS-T buffer for 2 min. The recombinant protein GST-GFP was used as a control.

T1 sequence (P18466 other isoform, or with tags, fused parts or gaps): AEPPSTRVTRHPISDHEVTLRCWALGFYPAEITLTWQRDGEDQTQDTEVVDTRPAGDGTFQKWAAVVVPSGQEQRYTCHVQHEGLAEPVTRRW

Kd: 6.54 µM
B1: GST-LILRB3-D1/D2 (receptor)
chain: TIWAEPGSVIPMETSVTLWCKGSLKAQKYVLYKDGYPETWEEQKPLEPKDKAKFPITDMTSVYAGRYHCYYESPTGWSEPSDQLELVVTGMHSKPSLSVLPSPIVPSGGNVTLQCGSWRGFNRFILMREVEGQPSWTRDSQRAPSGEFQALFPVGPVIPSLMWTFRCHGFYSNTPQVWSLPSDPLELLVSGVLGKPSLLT
notes: also called LILRB3-D1/2D; not shown: glutathione S-transferase (GST) tag of expression vector pGEX-6p-1
